Test results taken from patent publication US7323170.

Target: human B7.1, membrane associated (human) (UniProt P33681)
Experiment: cell-based or functional assay

Sequence of human B7.1, membrane associated (human) (P33681 35-288): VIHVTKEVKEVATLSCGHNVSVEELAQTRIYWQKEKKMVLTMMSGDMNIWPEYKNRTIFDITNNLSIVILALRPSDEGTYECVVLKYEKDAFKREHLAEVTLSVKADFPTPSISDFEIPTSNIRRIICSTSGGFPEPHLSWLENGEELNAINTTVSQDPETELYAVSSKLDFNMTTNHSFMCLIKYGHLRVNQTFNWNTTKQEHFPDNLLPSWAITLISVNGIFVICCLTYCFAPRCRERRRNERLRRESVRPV

## murine anti-B7.1 monoclonal antibody L307.4
  inhibition of IL-2 production in mixed lymphocyte reaction (concentration at which inhibitory): 10 µg/mL
